For assay [1], the target named is HBs antigen of genotype C HBV (infectious virus) (Hepatitis B virus (HBV) genotype C). Kind of assay: cell-based or functional assay.
The target in assay [2] is T1, human insulin (Fujifilm Wako Pure Chemical) (human, UniProt P01308 25-54; P01308 90-110).
T1 construct: also called human-derived component
In words: ELISA, human insulin coated on the plate, anti-human IgG-HRP. (An ELISA detects its analyte on a solid surface through an enzyme-linked reagent.)

A value given as a limit tells only on which side of the number the result lay.

T1 sequence (P01308 25-54 limits assumed, chain 1 of 2): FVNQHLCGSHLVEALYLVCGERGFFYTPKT
T1 sequence (P01308 90-110 limits assumed, chain 2 of 2): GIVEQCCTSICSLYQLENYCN

B1: 5A4 antibody (recombinant human anti-HBs monoclonal antibody) (antibody, V domains shown)
VH: QVQLQESGPGLVKPSDTLSLTCTVSGGSISGHYWSWIRRLPGGGLEWIGYIHYSGITNYNPSLKSRVTMSVDMSKNQFSLRLRSVTATDTAVYYCARGDATYGYWGQGAPVTVSS
VL: AAAMTQSPFTLPVTPGEPASISCRSSQSLLHRNGYNYVNWYLRKPGQSPQLLISLGSDRASGVPDRFRGSGAGTDFTLKISRVEAEDVGVYYCMQALRTPWTFGQGTKVEIKR
notes: also called 5A4 clone
As for B1, in assay [1], the “neutralization activity against commercially available HBIG (reduction of HBe antigen, PXB cells)” value was ≥ 10 fold against commercially available HBIG. Besides, in assay [2], the binding result is listed as “no binding (tested: 特異抗原であるHBsへの結合が飽和する濃度の10倍以上の抗体濃度)”.

B2: 3B6 antibody (recombinant human anti-HBs monoclonal antibody) (antibody, V domains shown)
VH: EVQLVESGGGVVQPGKSLRVSCAASGFSFSNYGMHWVRQAPGKGLEWVSVIWRDGSHQYYADSVKGRFTVSRDNARDTLFLQMDGLRAEDTAVYYCAREDPAIVLPVLDHWGRGTLVTVSS
VL: AAAMTQSPVSLSASVGDRVTITCRASQRINSYLNWYQQKPGKAPKLLIYGASNLPSGVPSRFSGSGSGTYFTLTISSLQPEDLATYYCQQGYSTPLLSFGPGTKVEIKR
notes: also called 3B6 clone
Consider B2, for which the “neutralization activity against commercially available HBIG (reduction of HBe antigen, PXB cells)” value in assay [1] was ≥ 10 fold against commercially available HBIG. The binding result in assay [2] is given as “no binding (tested: 特異抗原であるHBsへの結合が飽和する濃度の10倍以上の抗体濃度)”.

B3: M2-11 antibody (recombinant human anti-HBs monoclonal antibody) (antibody, V domains shown)
VH: QVQLVESGGGLVKPGESLRLSCAASGFMFSGHSMVWVRQAPGKGLEWVSFIGSTGEFISYADSVRGRFTISRDNAKNSLYLQMNSLRADDTAVYYCAREQGTRGRYYYYGLDVWGQGTTVTVSS
VL: AAAMTQTPPSLSLSPGESATLSCRASQSVSTYLAWYQQKPGQAPRLLIYDAFNRATGIPARFSGSGSGTDFTLTISGLEPEDFAVYYCQQRGHWPLTFGGGTKVEIKR
notes: also called M2-11 clone
As to B3, in assay [1], the “neutralization activity against commercially available HBIG (reduction of HBe antigen, PXB cells)” value is ≥ 10 fold against commercially available HBIG. For the same molecule, the binding result in assay [2] was “no binding (tested: 特異抗原であるHBsへの結合が飽和する濃度の10倍以上の抗体濃度)”.

(Values after patent publication WO2022025129A1 (dated 2022).)
